B1: KLHL14 (parent)
chain: YVIGGRNETGYLSSVECYNLETNE

Variants of: B1
Assay: protein stability index of a GFP-peptide fusion (GPS, HEK-293T) (PSI 1-6); higher = more stable
Conditions: c terminus: a fixed tail appended
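Also: lentivirally expressed fusions sorted by FACS into six bins by GFP to DsRed ratio, PSI derived from sequencing read proportions per bin multiplied by bin number.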

Protein stability index: each site, then its substitutions
L12: M 2.33 | P 2.64 | T 2.57 | V 2.21 | G 2.99 | F 1.8 | R 3.28 | C 2.32 | W 2.47 | S 2.59 | Y 1.8 | H 1.92 | E 3.23 | N 2.78 | A 2.62 | Q 2.42 | I 2.25 | K 2.16 | D 3.42
C17: Q 2.43 | S 2.11 | P 2.23 | Y 1.78 | H 2.08 | L 2.56 | A 2.06 | D 2.82 | E 2.22 | K 2.28 | W 2.17 | F 1.66 | R 2.39 | G 2.8 | I 2.5 | T 2.56 | V 1.48 | M 1.78 | N 2.44
Y18: G 2.57 | W 2.21 | M 2.4 | R 2.6 | L 2.11 | F 2.1 | T 2.72 | A 2.76 | Q 2.34 | K 1.96 | S 2.14 | H 2.32 | D 2.77 | I 2.5 | N 2.61 | E 2.48 | P 2.45 | V 2.05 | C 1.71
V15: Y 1.5 | E 2.69 | H 2.24 | M 1.84 | G 2.05 | C 1.66 | W 2.21 | I 1.83 | D 2.95 | R 2.01 | P 2.46 | L 1.9 | N 2.46 | F 1.52 | T 1.74 | K 2.12 | S 2.5 | A 1.76 | Q 2.49
E16: V 3.5 | R 2.16 | A 1.27 | L 2.09 | M 1.45 | Q 1.96 | G 1.54 | W 2.93 | C 2.58 | T 1.96 | I 1.83 | F 3.4 | K 1.28 | D 2.41 | S 2.18 | P 2.45 | N 2.33 | H 1.62 | Y 1.84
Y11: K 2.86 | T 2.75 | H 2.45 | L 2.2 | A 2.71 | D 3.65 | M 1.96 | Q 3.1 | P 3.71 | R 2.13 | C 2.45 | F 1.83 | G 2.85 | I 2.1 | N 2.83 | V 2.52 | E 3.9 | S 2.42
N19: G 1.7 | A 2.15 | E 2.22 | I 2.07 | F 3.39 | H 2.04 | D 2.41 | C 1.57
S13: R 2.23 | I 1.84 | T 1.79 | K 1.68 | L 2.25 | G 1.81 | P 2.6 | D 2.76 | E 2.61 | M 1.91 | H 1.58 | V 1.89 | N 1.78 | A 1.65 | F 2.13 | Y 1.79 | C 2.24 | Q 1.64
G10: T 1.6 | P 1.52 | S 1.93 | W 2.21 | Q 2.29 | N 1.65 | Y 1.6 | V 1.98 | R 2.55
S14: K 1.35 | Q 2.5 | G 2.31 | W 2.88 | I 2.56 | L 1.75 | H 1.8 | E 2.91 | N 2.12 | D 2.38 | F 1.47 | R 1.58 | V 2.08 | M 2.3 | C 2.4 | Y 2.01 | P 1.61 | A 1.7 | T 1.99
